In PMC5587766, “Towards designer organelles by subverting the peroxisomal import pathway” (Nature Communications, 2017):
Where no end group is shown, it is not given here.

Key:
AtPEX5C N601A [1] = target: T1, AtPEX5C N601A (Arabidopsis thaliana, UniProt Q9FMA3, N601A); experiment: Pull down of binding peptides (Co-NTA, LC-MS), AtPEX5C N601A; conditions: […] protein, 500 nM each peptide, pH 8.0, 4 °C, 1 h, semi-quantitative
T1 construct: made in house; host or cells: E. coli BL21-Gold (DE3)
T1 sequence (Q9FMA3 340-728 N601A): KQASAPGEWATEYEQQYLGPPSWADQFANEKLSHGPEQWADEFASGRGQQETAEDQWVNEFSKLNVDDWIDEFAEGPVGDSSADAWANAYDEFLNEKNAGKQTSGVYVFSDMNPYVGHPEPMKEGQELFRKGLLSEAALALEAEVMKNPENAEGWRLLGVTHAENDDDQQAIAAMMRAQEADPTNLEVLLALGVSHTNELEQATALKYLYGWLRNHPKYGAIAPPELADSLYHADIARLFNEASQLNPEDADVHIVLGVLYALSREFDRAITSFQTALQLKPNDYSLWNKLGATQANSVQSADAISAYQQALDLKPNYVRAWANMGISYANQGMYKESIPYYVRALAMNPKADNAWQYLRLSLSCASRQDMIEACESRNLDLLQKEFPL
Description: (§1) The chemical space that can be covered by all possible variants of the receptor and signal sequence is vast (e.g., combined randomization of the two C-terminal PTS1 residues and just six residues within AtPEX5C would result in a library size of 2.6 × 10^10 variants of peptide and protein), which makes the development of an assay for a PEX5*-PTS1* pair problematic. We reduced the dimensionality of this search by designing modifications to the PEX5 component and rapidly surveying which peptide sequences could be bound by each mutated receptor (Fig. 1a). Site-directed variants of a His6-tagged A. thaliana PEX5 PTS1-binding domain (residues 340–728, AtPEX5C)[16], selected by analysis of known crystal structures, were expressed in Escherichia coli. The purified proteins were incubated with a library of pentapeptides, representing known PTS1 and putative PTS1* sequences. After capture of the receptor-peptide complexes on cobalt affinity resin, the bound peptides were eluted and identified by liquid chromatography-mass spectrometry (LC-MS) analysis. […]
(§2) Each peptide sub-library was analyzed using the LC-MS method listed above and an identical chromatographic run in which the mass spectrometer provided automated MS/MS data, using collisional induced fragmentation in the quadrupole. […]

wild-type AtPEX5C = target: T2, wild-type AtPEX5C (Arabidopsis thaliana, UniProt Q9FMA3); experiment: Pull down of binding peptides (Co-NTA, LC-MS), wild-type AtPEX5C; conditions: […] protein, 500 nM each peptide, pH 8.0, 4 °C, 1 h, semi-quantitative
T2 construct: made in house; host or cells: E. coli BL21-Gold (DE3)
T2 sequence (Q9FMA3 340-728): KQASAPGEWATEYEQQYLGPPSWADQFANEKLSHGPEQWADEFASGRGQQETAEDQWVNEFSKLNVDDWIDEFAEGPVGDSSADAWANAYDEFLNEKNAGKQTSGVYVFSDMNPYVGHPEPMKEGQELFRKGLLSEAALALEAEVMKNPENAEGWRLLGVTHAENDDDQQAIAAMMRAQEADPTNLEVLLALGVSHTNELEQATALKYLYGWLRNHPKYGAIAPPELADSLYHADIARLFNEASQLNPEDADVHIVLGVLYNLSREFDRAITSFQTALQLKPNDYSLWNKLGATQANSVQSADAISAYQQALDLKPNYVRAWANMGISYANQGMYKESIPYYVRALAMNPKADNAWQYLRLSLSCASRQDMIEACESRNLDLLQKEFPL
Description: as §1, §2

AtPEX5C D505H [2] = target: T3, AtPEX5C D505H (Arabidopsis thaliana, UniProt Q9FMA3, D505H); experiment: Pull down of binding peptides (Co-NTA, LC-MS), AtPEX5C D505H; conditions: […] protein, 500 nM each peptide, pH 8.0, 4 °C, 1 h, semi-quantitative
T3 construct: made in house; host or cells: E. coli BL21-Gold (DE3)
T3 sequence (Q9FMA3 340-728 D505H): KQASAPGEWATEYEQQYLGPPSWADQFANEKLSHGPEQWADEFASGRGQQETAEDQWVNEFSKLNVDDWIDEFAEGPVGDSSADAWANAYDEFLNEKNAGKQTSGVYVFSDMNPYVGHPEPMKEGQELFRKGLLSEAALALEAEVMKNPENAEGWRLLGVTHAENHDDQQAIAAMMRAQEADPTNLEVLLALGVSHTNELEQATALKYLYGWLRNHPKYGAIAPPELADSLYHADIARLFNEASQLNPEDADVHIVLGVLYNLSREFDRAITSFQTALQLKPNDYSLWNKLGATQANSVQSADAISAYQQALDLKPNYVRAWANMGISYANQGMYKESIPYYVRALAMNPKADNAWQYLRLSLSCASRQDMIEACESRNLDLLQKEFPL
Description: as §1, §2

[3] = target: endogenous PhypaPEX5 (Physcomitrella patens (endogenous in P. patens cells))
lissamine-YQSYY = experiment: fluorescence polarisation; fluorescence anisotropy; AtPEX5C or variant serially diluted (from a 40 µM solution) against 100 nM lissamine-labelled peptide tracer; 20 mM HEPES, 150 mM NaCl, pH 7.5; gelatine-blocked 384-well plates; 25 °C, 20 min; fitted to a 1:1 binding model
AtPEX5C N601A [4] = target: T4, AtPEX5C N601A (Arabidopsis thaliana, UniProt Q9FMA3 340-728, N601A); experiment: as above; conditions: both partners purified
T4 construct: Made by site-directed mutagenesis of His6-AtPEX5 (340-728) in pET-28b; also called N601A variant; source: E. coli BL21-Gold (DE3), purified (Co-NTA)
T4 sequence (looked up): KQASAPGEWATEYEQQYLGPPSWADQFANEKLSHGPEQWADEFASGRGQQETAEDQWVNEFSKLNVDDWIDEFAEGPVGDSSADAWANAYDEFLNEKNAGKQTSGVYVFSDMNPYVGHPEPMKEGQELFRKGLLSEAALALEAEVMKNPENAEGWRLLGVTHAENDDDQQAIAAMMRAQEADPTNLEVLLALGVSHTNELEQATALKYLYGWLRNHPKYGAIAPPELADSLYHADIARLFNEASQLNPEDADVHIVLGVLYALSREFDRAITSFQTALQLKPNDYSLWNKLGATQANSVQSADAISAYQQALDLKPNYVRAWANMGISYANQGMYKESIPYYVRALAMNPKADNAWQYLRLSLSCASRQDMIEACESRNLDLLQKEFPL

[5] = target: T5, His6-tagged A. thaliana PEX5 PTS1-binding domain (residues 340-728), wild type (Arabidopsis thaliana, UniProt Q9FMA3 340-728); experiment: as above; conditions: both partners purified
T5 construct: Written 'His6-AtPEX5 (340-728)', in pET-28b; also called AtPEX5C; wild-type AtPEX5C; source: E. coli BL21-Gold (DE3), purified (Co-NTA)
T5 sequence (looked up): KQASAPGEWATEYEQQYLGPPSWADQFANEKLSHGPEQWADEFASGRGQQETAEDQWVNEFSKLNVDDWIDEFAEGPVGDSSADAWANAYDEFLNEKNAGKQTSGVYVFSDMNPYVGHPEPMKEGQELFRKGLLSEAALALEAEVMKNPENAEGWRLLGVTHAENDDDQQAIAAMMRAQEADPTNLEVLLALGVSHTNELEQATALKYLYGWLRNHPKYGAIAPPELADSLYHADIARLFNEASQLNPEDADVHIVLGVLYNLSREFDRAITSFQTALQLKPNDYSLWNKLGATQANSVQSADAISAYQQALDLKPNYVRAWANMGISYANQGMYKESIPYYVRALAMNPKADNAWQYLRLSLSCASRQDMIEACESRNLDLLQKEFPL

AtPEX5C D505H [6] = target: T6, AtPEX5C D505H (Arabidopsis thaliana, UniProt Q9FMA3 340-728, D505H); experiment: as above; conditions: both partners purified
T6 construct: Made by site-directed mutagenesis of His6-AtPEX5 (340-728) in pET-28b; also called D505H variant of AtPEX5C; source: E. coli BL21-Gold (DE3), purified (Co-NTA)
T6 sequence (looked up): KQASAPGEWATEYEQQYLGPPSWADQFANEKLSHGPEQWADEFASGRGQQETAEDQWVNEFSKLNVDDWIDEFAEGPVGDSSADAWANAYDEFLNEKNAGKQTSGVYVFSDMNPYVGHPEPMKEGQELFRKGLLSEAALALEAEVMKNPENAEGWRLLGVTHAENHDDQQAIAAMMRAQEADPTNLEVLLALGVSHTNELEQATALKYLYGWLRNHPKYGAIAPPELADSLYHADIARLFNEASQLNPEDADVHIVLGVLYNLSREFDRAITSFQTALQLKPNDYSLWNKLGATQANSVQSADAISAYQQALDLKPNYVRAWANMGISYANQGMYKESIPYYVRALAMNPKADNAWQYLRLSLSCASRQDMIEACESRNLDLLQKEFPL

[7] = target: T7, AtPEX5C D505H-D507T-N601A (Arabidopsis thaliana, UniProt Q9FMA3 340-728, D505H | D507T | N601A); experiment: as above; conditions: both partners purified
T7 construct: Made by site-directed mutagenesis of His6-AtPEX5 (340-728) in pET-28b; source: E. coli BL21-Gold (DE3), purified (Co-NTA)
T7 sequence (looked up): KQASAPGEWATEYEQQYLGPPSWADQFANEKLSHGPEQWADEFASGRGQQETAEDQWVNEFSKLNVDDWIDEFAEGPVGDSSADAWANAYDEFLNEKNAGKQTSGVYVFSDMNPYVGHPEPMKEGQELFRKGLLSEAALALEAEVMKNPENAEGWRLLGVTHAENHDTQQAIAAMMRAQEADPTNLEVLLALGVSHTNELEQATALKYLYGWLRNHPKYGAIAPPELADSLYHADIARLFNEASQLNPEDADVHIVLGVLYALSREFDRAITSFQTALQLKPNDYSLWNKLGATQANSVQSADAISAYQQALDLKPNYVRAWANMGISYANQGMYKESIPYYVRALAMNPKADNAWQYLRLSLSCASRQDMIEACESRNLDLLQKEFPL

AtPEX5C D505H-N601A = target: T8, AtPEX5C D505H-N601A (Arabidopsis thaliana, UniProt Q9FMA3 340-728, D505H | N601A); experiment: as above; conditions: both partners purified
T8 construct: Made by site-directed mutagenesis of His6-AtPEX5 (340-728) in pET-28b; source: E. coli BL21-Gold (DE3), purified (Co-NTA)
T8 sequence (looked up): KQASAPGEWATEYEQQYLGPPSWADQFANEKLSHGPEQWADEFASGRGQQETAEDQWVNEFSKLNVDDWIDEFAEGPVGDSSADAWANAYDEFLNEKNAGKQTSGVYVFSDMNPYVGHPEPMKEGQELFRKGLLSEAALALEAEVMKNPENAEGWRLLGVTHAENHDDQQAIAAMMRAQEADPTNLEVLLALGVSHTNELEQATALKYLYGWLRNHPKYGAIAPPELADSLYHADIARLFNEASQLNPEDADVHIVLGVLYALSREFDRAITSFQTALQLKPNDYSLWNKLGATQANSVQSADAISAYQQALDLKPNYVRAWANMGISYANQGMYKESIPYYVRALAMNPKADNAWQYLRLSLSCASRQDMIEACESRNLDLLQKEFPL

Molecule: dansyl-YQSFY [member of dansyl-YQSXX pentapeptide library]
- pulled down from library (AtPEX5C N601A [1]): bound
- pulled down from library (wild-type AtPEX5C): not pulled down
- pulled down from library (AtPEX5C D505H [2]): bound

Molecule: RFP-PTS1
- peroxisomal import: localisation score (1-5) of RFP-PTS1 in P. patens cells expressing PEX5* without GFP-PTS1* (score (scale 1-5)) [3]: 4.32

Molecule: His6-tagged A. thaliana PEX5 PTS1-binding domain (residues 340-728), wild type (from UniProt Q9FMA3 340-728) (domain or fragment)
- Kd (lissamine-YQSYY): 2700 nM

Molecule: dansyl-YQSYY [member of dansyl-YQSXX pentapeptide library]
- pulled down from library (AtPEX5C N601A [1]): bound
- pulled down from library (wild-type AtPEX5C): not pulled down
- pulled down from library (AtPEX5C D505H [2]): bound

B1: lissamine-YQSKL (peptide)
peptide: {lissamine rhodamine B sulfonyl}-YQSKL
notes: model PTS1 pentapeptide; also called lissamine-labelled YQSKL; model PTS1 peptide; source: synthetic peptide (Fmoc solid-phase synthesis, reverse phase HPLC)
- Kd (AtPEX5C N601A [4]): 22 nM
- Kd [5]: 1.1 nM
- Kd (AtPEX5C D505H [6]): 30 nM
- Kd [7]: 97 nM
- Kd (AtPEX5C D505H-N601A): 108 nM

B2: lissamine-YQSYY (peptide)
peptide: {lissamine rhodamine B sulfonyl}-YQSYY
notes: pentapeptide found in the YQSXX library screen; also called lissamine-labelled YQSYY; source: synthetic peptide (Fmoc solid-phase synthesis, reverse phase HPLC)
- Kd (AtPEX5C N601A [4]): 2300 nM
- Kd (AtPEX5C D505H [6]): 960 nM
- Kd [7]: 110 nM
- Kd (AtPEX5C D505H-N601A): 603 nM
